This is an account of results in patent US20150259422A1 (UNIVERSITY OF NORTH CAROLINA AT CHAPEL HILL, published 2015).

For assay [1], the target named is T1, alphaVbeta3 integrin, native human, on rhabdomyosarcoma (RD) cells and on human umbilical vein endothelial … (human, UniProt P06756 31-1048; P05106 27-788).
T1 construct: whole, on cells; also called αVβ3; native human β3
The assay can be described thus: flow cytometry on RD cells expressing alphaVbeta3; reference chimeric HLMC. On the technique in general: In flow cytometry, cells or beads pass a laser one at a time.
Experimental: (§1) The binding of NS0-derived HLMC Composite Human Antibody™ variants to rhabdomyosarcoma (RD) cells expressing alphaVbeta3 integrin was assessed in a flow cytometry binding assay. Briefly, a subconfluent monolayer of RD cells was prepared and incubated in serum free medium for 24 hours prior to harvest. […] Cells were resuspended into a suitable volume of cold FACS buffer (1% FBS/0.01% sodium azide/PBS) to yield a final cell density of 4×10⁶ cells/ml.
(§2) The plates were incubated at 4° C. for 1 hour. Cells were washed with FACS buffer, resuspended in 100 μl of secondary antibody (Sigma Cat. No. P8047, goat anti-human IgG (γ chain specific; PE conjugated) and incubated for 1 hour at 4° C. Cells were washed twice, resuspended in a final volume of 175 μl FACS buffer and transferred to FACS tubes. Fluorescence was measured by flow cytometry and data plotted as normalized % positive events (gated in R2).

Assay [2] addresses T1, alphaVbeta3 integrin, native human, on …. Briefly: flow cytometry on RD cells expressing alphaVbeta3, PE anti-human IgG; EC50 = concentration where 50% of cells gated in R2.
Experimental: as §1, §2

T1 sequence (P06756 31-1048, chain 1 of 2): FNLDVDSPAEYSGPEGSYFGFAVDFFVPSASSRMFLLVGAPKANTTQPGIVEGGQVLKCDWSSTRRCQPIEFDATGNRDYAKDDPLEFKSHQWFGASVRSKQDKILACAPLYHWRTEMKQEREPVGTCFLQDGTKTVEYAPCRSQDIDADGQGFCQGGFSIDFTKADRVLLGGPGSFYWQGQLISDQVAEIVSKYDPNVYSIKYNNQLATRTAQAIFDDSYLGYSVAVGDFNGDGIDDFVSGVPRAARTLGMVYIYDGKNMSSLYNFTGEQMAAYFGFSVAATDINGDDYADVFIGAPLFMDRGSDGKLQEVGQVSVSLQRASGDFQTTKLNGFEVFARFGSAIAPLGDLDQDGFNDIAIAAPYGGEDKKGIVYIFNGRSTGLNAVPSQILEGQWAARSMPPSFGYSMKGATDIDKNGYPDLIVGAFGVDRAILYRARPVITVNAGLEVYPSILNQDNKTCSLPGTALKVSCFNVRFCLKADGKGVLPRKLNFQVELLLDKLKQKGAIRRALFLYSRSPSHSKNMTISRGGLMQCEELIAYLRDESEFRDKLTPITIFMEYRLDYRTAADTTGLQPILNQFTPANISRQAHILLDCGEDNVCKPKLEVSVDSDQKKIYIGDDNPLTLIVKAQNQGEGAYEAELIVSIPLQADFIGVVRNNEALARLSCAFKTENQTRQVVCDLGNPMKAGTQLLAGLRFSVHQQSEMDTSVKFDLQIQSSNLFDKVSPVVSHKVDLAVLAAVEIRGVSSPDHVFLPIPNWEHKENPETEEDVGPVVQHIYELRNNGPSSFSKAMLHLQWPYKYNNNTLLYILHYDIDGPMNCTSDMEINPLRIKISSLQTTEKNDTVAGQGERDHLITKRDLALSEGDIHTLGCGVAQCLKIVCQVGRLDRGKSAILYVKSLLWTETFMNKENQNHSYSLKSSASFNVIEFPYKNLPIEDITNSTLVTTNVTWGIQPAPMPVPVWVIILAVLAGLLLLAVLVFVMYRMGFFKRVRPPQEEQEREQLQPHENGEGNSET
T1 sequence (P05106 27-788, chain 2 of 2): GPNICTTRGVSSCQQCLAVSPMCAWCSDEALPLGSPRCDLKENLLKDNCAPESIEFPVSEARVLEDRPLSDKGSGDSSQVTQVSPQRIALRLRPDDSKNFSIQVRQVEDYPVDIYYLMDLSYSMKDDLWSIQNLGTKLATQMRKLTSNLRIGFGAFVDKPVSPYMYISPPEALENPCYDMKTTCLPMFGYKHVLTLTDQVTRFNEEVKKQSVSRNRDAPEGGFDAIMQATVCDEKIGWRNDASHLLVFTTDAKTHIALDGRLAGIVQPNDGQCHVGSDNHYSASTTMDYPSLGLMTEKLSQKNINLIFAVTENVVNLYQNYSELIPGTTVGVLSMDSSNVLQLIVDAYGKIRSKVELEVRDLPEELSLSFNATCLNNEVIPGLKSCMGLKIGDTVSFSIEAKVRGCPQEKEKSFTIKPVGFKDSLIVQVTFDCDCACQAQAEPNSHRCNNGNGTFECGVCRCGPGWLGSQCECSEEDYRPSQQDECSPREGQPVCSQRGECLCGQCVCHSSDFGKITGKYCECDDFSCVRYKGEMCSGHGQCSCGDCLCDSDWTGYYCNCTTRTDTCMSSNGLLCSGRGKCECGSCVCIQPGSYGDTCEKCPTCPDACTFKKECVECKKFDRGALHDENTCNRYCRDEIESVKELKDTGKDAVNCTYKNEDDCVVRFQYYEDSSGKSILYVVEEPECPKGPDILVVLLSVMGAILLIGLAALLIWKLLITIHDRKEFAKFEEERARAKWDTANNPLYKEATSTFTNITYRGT

B1: VH3/Vκ2 Composite Human Antibody variant of HLMC (antibody, human IgG1, kappa, V domains shown)
VH: QAQLVQSGAEVKKPGASVKVSCKASGYLFSNSWMNWVKQRRGAGLEWIGRIFPGDGDTNYNGKFKGRATITADKSTSTAYMELSSLRSEDTAVYFCARWGLTRDRRLYLDYWGQGTTVTVSS
VL: DIVMTQSPDSLAVSLGERATINCKSSQSLLYSSNQKNYLAWYQQKPGQAPRLLIYWASTRESGVPDRFTGSGSGTDFTLTISSLQAEDVAVYYCKQYYTYPLTFGQGTKLEIKR
notes: also called VH3/Vk2
For B1, in assay [1], the “relative binding score (EC50 of variant divided by EC50 of chimeric HLMC)” value stood at 13.2 ratio. Moreover, a half-maximal response in assay [2] (EC50) required 47.4 nM.

B2: VH5/Vκ1 Composite Human Antibody variant of HLMC (antibody, human IgG1, kappa, V domains shown)
VH: QAQLVQSGAEVKKPGASVKVSCKASGYLFSNSWMNWVKQRRGAGLEWIGRIFPGDGDTNYNGKFKGRVTITADKSTSTAYMELSSLRSEDTAVYYCARWGLTRDRRLYLDYWGQGTTVTVSS
VL: DIVMTQSPDSLVVSLGERATINCKSSQSLLYSSNQKNYLAWYQQKSGQAPRLLIYWASTRESGVPDRFTGSGSGTDFTLTISSLQAEDVAVYYCKQYYTYPLTFGQGTKLEIKR
notes: also called VH5/Vk1
Regarding B2, the “relative binding score (EC50 of variant divided by EC50 of chimeric HLMC)” value in assay [1] worked out at 1.23 ratio. Moreover, the midpoint of the response in assay [2], the EC50, lay at 4.42 nM.

B3: VH1/Vκ3 Composite Human Antibody variant of HLMC (antibody, human IgG1, kappa, V domains shown)
VH: QAQLVQSGPELKKPGASVKVSCKASGYLFSNSWMNWVKQRPGAGLEWIGRIFPGDGDTNYNGKFKGRATITADKSTSTAYMELSSLRSEDSAVYFCARWGLTRDRRLYLDYWGQGTTVTVSS
VL: DIVMTQSPDSLAVSLGERATINCKSSQSLLYSSNQKNYLAWYQQKPGQAPRLLIYWASTRESGVPDRFSGSGSGTDFTLTISSLQAEDVAVYYCKQYYTYPLTFGQGTKLEIKR
notes: also called VH1/Vk3
B3: in assay [1], the “relative binding score (EC50 of variant divided by EC50 of chimeric HLMC)” value turned out to be 1.14 ratio. Also, the EC50 (commonly the concentration giving half of the maximal effect) in assay [2] turned out to be 4.08 nM.

B4: VH4/Vκ1 Composite Human Antibody variant of HLMC (antibody, human IgG1, kappa, V domains shown)
VH: QAQLVQSGAEVKKPGASVKVSCKASGYLFSNSWMNWVKQRRGAGLEWIGRIFPGDGDTNYNGKFKGRVTITADKSTSTAYMELSSLRSEDTAVYFCARWGLTRDRRLYLDYWGQGTTVTVSS
VL: DIVMTQSPDSLVVSLGERATINCKSSQSLLYSSNQKNYLAWYQQKSGQAPRLLIYWASTRESGVPDRFTGSGSGTDFTLTISSLQAEDVAVYYCKQYYTYPLTFGQGTKLEIKR
notes: also called Vh4/Vk1; VH4/Vk1
For B4, the “relative binding score (EC50 of variant divided by EC50 of chimeric HLMC)” value in assay [1] was found to be 0.87 ratio. This molecule showed an EC50 in assay [2] of 3.12 nM.

B5: VH1/Vκ2 Composite Human Antibody variant of HLMC (antibody, human IgG1, kappa, V domains shown)
VH: QAQLVQSGPELKKPGASVKVSCKASGYLFSNSWMNWVKQRPGAGLEWIGRIFPGDGDTNYNGKFKGRATITADKSTSTAYMELSSLRSEDSAVYFCARWGLTRDRRLYLDYWGQGTTVTVSS
VL: DIVMTQSPDSLAVSLGERATINCKSSQSLLYSSNQKNYLAWYQQKPGQAPRLLIYWASTRESGVPDRFTGSGSGTDFTLTISSLQAEDVAVYYCKQYYTYPLTFGQGTKLEIKR
notes: also called VH1/Vk2
For the molecule B5, the “relative binding score (EC50 of variant divided by EC50 of chimeric HLMC)” value in assay [1] was found to be 1.52 ratio. In addition, the response in assay [2] was half-maximal at 5.43 nM (EC50).

B6: VH4/Vκ3 Composite Human Antibody variant of HLMC (antibody, human IgG1, kappa, V domains shown)
VH: QAQLVQSGAEVKKPGASVKVSCKASGYLFSNSWMNWVKQRRGAGLEWIGRIFPGDGDTNYNGKFKGRVTITADKSTSTAYMELSSLRSEDTAVYFCARWGLTRDRRLYLDYWGQGTTVTVSS
VL: DIVMTQSPDSLAVSLGERATINCKSSQSLLYSSNQKNYLAWYQQKPGQAPRLLIYWASTRESGVPDRFSGSGSGTDFTLTISSLQAEDVAVYYCKQYYTYPLTFGQGTKLEIKR
notes: also called VH4/Vk3
In the case of B6, the “relative binding score (EC50 of variant divided by EC50 of chimeric HLMC)” value in assay [1] was found to be 0.57 ratio. The same molecule came in with an EC50 in assay [2] of 2.03 nM.

B7: VH3/Vκ1 Composite Human Antibody variant of HLMC (antibody, human IgG1, kappa, V domains shown)
VH: QAQLVQSGAEVKKPGASVKVSCKASGYLFSNSWMNWVKQRRGAGLEWIGRIFPGDGDTNYNGKFKGRATITADKSTSTAYMELSSLRSEDTAVYFCARWGLTRDRRLYLDYWGQGTTVTVSS
VL: DIVMTQSPDSLVVSLGERATINCKSSQSLLYSSNQKNYLAWYQQKSGQAPRLLIYWASTRESGVPDRFTGSGSGTDFTLTISSLQAEDVAVYYCKQYYTYPLTFGQGTKLEIKR
notes: also called VH3/Vk1
In the case of B7, the “relative binding score (EC50 of variant divided by EC50 of chimeric HLMC)” value in assay [1] stood at 1.35 ratio. Also, the EC50 in assay [2] turned out to be 4.85 nM.

B8: VH2/Vκ2 Composite Human Antibody variant of HLMC (antibody, human IgG1, kappa, V domains shown)
VH: QAQLVQSGPEVKKPGASVKVSCKASGYLFSNSWMNWVKQRPGAGLEWIGRIFPGDGDTNYNGKFKGRATITADKSTSTAYMELSSLRSEDTAVYFCARWGLTRDRRLYLDYWGQGTTVTVSS
VL: DIVMTQSPDSLAVSLGERATINCKSSQSLLYSSNQKNYLAWYQQKPGQAPRLLIYWASTRESGVPDRFTGSGSGTDFTLTISSLQAEDVAVYYCKQYYTYPLTFGQGTKLEIKR
notes: also called VH2/Vk2
For the molecule B8, in assay [1], the “relative binding score (EC50 of variant divided by EC50 of chimeric HLMC)” value stood at 1.37 ratio. Also, the EC50 in assay [2] came out at 4.92 nM.

B9: VH3/Vκ3 Composite Human Antibody variant of HLMC (antibody, human IgG1, kappa, V domains shown)
VH: QAQLVQSGAEVKKPGASVKVSCKASGYLFSNSWMNWVKQRRGAGLEWIGRIFPGDGDTNYNGKFKGRATITADKSTSTAYMELSSLRSEDTAVYFCARWGLTRDRRLYLDYWGQGTTVTVSS
VL: DIVMTQSPDSLAVSLGERATINCKSSQSLLYSSNQKNYLAWYQQKPGQAPRLLIYWASTRESGVPDRFSGSGSGTDFTLTISSLQAEDVAVYYCKQYYTYPLTFGQGTKLEIKR
notes: also called VH3/Vk3
On to B9, for which the “relative binding score (EC50 of variant divided by EC50 of chimeric HLMC)” value in assay [1] is 0.87 ratio. The molecule further returned an EC50 in assay [2] of 3.13 nM.

B10: VH5/Vκ3 Composite Human Antibody variant of HLMC (antibody, human IgG1, kappa, V domains shown)
VH: QAQLVQSGAEVKKPGASVKVSCKASGYLFSNSWMNWVKQRRGAGLEWIGRIFPGDGDTNYNGKFKGRVTITADKSTSTAYMELSSLRSEDTAVYYCARWGLTRDRRLYLDYWGQGTTVTVSS
VL: DIVMTQSPDSLAVSLGERATINCKSSQSLLYSSNQKNYLAWYQQKPGQAPRLLIYWASTRESGVPDRFSGSGSGTDFTLTISSLQAEDVAVYYCKQYYTYPLTFGQGTKLEIKR
notes: also called VH5/Vk3
B10: the “relative binding score (EC50 of variant divided by EC50 of chimeric HLMC)” value in assay [1] is 0.88 ratio. Further, the EC50 in assay [2] was determined as 3.15 nM.

B11: VH2/Vκ1 Composite Human Antibody variant of HLMC (antibody, human IgG1, kappa, V domains shown)
VH: QAQLVQSGPEVKKPGASVKVSCKASGYLFSNSWMNWVKQRPGAGLEWIGRIFPGDGDTNYNGKFKGRATITADKSTSTAYMELSSLRSEDTAVYFCARWGLTRDRRLYLDYWGQGTTVTVSS
VL: DIVMTQSPDSLVVSLGERATINCKSSQSLLYSSNQKNYLAWYQQKSGQAPRLLIYWASTRESGVPDRFTGSGSGTDFTLTISSLQAEDVAVYYCKQYYTYPLTFGQGTKLEIKR
notes: also called VH2/Vk1
As to B11, the “relative binding score (EC50 of variant divided by EC50 of chimeric HLMC)” value in assay [1] is 1.27 ratio. The same molecule registered an EC50 in assay [2] of 4.55 nM.

B12: VH2/Vκ3 Composite Human Antibody variant of HLMC (antibody, human IgG1, kappa, V domains shown)
VH: QAQLVQSGPEVKKPGASVKVSCKASGYLFSNSWMNWVKQRPGAGLEWIGRIFPGDGDTNYNGKFKGRATITADKSTSTAYMELSSLRSEDTAVYFCARWGLTRDRRLYLDYWGQGTTVTVSS
VL: DIVMTQSPDSLAVSLGERATINCKSSQSLLYSSNQKNYLAWYQQKPGQAPRLLIYWASTRESGVPDRFSGSGSGTDFTLTISSLQAEDVAVYYCKQYYTYPLTFGQGTKLEIKR
notes: also called VH2/Vk3
As to B12, the “relative binding score (EC50 of variant divided by EC50 of chimeric HLMC)” value in assay [1] amounted to 1.03 ratio. In assay [2], it took 3.7 nM to reach a half-maximal effect (EC50).
